Key:
PA28γ gene = assay: Selection of RNA interference target sequence by PA28γ expression suppressing effect; type: cell-based, human; conditions: among four target sequences from the open reading frame of the PA28γ gene
From the text: A DNA fragment that encodes a short hairpin RNA for knocking down the human PA28γ gene by RNA interference was designed according to the following procedure.
The following four sequences were selected as the target sequences from the open reading frame of the PA28γ gene.
The sequence of SEQ ID NO: 4 corresponds to positions 16 to 36 of the PA28γ coding region represented by SEQ ID NO: 5.

PA28γ = PA28γ detection by western blotting in shRNA-transfected Huh7 OK1 clones; type: cell-based, human; conditions: clones C5 and C7 vs Huh7 Ok1 cells and control shRNA cells
Method: The DNA fragment was incorporated between the BamHI and Hind III sites of a pSilencer 2.1 U6-hygro vector (Ambion; Austin, Tex.), and introduced by lipofection to Huh7 OK1 cells sensitive to the hepatitis C virus JFH1 strain. The cells were then cultured for 1 week in a 10% fetal bovine serum Dulbecco's modified Eagle's medium supplemented with 0.1 mg/mL hygromycin. The cells were cloned by limiting dilution, and two clones, named C5 and C7, with low PA28γ expression levels were selected by western blotting.
Separately, a commercially available pSilencer 2.1-U6 hygro negative control vector (Ambion) having no complementarity to human PA28γ gene was treated by the same procedure to establish single clones that had the same PA28γ expression level as the parental strain (control cells; hereinafter, also referred to as “control shRNA”).
The Huh7 Ok1 cells, the control cells, and the PA28γ knockdown cells C5 and C7 were lysed, and the lysate was subjected to SDS-polyacrylamide gel electrophoresis for the detection of PA28γ and β-actin by western blotting using anti-PA28γ antibody (Affiniti) and anti-actin antibody (Sigma Aldrich Japan).

hepatitis C virus JFH1 = assay: Virus titer of culture supernatant after JFH1 infection of PA28γ constant knockdown cells; type: cell-based; conditions: empty plasmid transfected; JFH1 MOI 0.024; 10 days culture; knockdown cells vs control cells
Method: The control cells (control shRNA) and PA28γknockdown cells C5 and C7 were transfected with pEFFLAGGspGBK or pEFFLAGGsPA28gammaSI plasmid. The next day, the medium was replaced with 10% fetal bovine serum Dulbecco's modified Eagle's medium supplemented with 3 μg/mL puromycin, and the cells were further cultured for 24 hours. The surviving cells were then inoculated in a 12-well plate (2.5×10^4 cells/well), and infected with hepatitis C virus JFH1 at an MOI of 0.024.
The JFH1 gene-containing plasmid pJFH1 was cut with XbaI enzyme, blunted with Mung Bean nuclease, and virus RNA was synthesized using a MEGAscript T7 kit (Ambion). The virus RNA was transfected into Huh7 OK1 cells by electroporation under the conditions 260 V and 960 μF. […] Using Huh7 OK1, the virus titer (ffu/mL) of the culture supernatant was measured according to the method of Wakita et al. (Nat. Med. 11:791-796, 2005), as follows. The Huh7 OK1 cells were infected with the culture supernatant to be measured at 37° C. for 3 hours. […]
The rabbit anti-NS5A antibody prepared by immunizing the peptide from the amino acid residues 409 to 422 of NS5A according to the method described in J. Virol. 79:13473-13482, 2005 was allowed to react with Alexa Fluor® 488-anti-rabbit IgG antibody (Molecular Probe), and the fluorescent cell foci were counted to calculate the virus titer.

HCV replicon RNA = assay: HCV replicon Renilla luciferase replication assay in control and PA28γ knockdown cells; type: cell-based, hepatitis C virus; conditions: knockdown cells C5 (KD5) vs control cells (Cntrl5), 24, 48, 96 h normalized to 4 h
Method: Virus replication by replicon was evaluated in the same manner except that the control cells and knockdown cells prepared in Section 1 above were used, as described in Krieger et al. (Krieger et al., J. Virol., 75:4614-4624, 2001).
A cDNA encoding Renilla luciferase was introduced between AscI and PmeI of a plasmid pFK-1389 neo/NS3-3′/NK5.1, instead of a neogene. The resulting plasmid pFK-1389 hRL/NS3-3/NK5.1 was cleaved at ScaI, and […] in vitro using a MEGAscript T7 kit (Ambion). A suspension of Huh7 cells (10×10^6 cells/mL) was prepared, and 400 μl of the suspension was mixed with 10 μg of in vitro transcription RNA. This was followed by electroporation performed under the conditions 270 V and 960 μF using a Gene Pulser™ (Bio-Rad). The electroporated cells were suspended in 25-ml medium, and inoculated in a 12-well culture plate (1 ml/well). Then, luciferase activities at hour 4, 24, 48, and 96 post infection were measured using a Renilla Luciferase assay system (Promega).
The synthesized HCV replicon RNA, and the HCV replicon GND RNA with the inactivated RNA polymerase activity were transfected into control shRNA cells and PA28γ knockdown cells C5, and luciferase activity was measured.
The measured values in each combination were normalized by dividing the values after 24, 48, and 96 hours by the value after 4 hours.

B1: shRNA against PA28γ: short hairpin RNA against target sequence SEQ ID NO: 4 (…), encoded by DNA fragment SEQ ID NO: 6 in pSilencer 2.1 U6-hygro vector (nucleic acid)
DNA: GGATCCGGTGGATCAGGAAGTGAAGTTCAAGAGACTTCACTTCCTGATCCACCTTTTTTGGAAAAGCTT
modifications: the letters are possibly those of the target site
PA28γ expression suppressing effect (PA28γ gene): remarkable expression suppressing effect | PA28γ expression level (PA28γ): lower PA28γ expression levels | virus production (virus titer) (hepatitis C virus JFH1): significantly lower | luciferase value (virus replication by replicon) (HCV replicon RNA): no difference in luciferase value
